Data as given in the DeepSol protein solubility set.

Experiment: soluble on expression in E. coli; label from the status in PepcDB or PDB records

Question: Which “soluble on expression in E. coli” value does the source give for “MVKIYLIEHVIGAVAYDENGNIVDYITNPRDLGKITEELLNNEKGIPFSATVELLKKVNPQEVVVENEAEVPKLQALGYRVSYEPYSKVSRIFRESLPKVAIDIKFASNEEDYYNFLHELSLEYTRRKLRSAAQKRDLLAIQAVRAMDDIDKTINLFSERLREWYSIHFPELDKLIEDHEEYATIVSRFGDRGFLTIDSLKELGFNEQRINRILDAAKKSIGADISEDDLSAMRMIANTILDLYNIRRNLNNYLEGVMKEVAPNVTALVGPALGARLLSIAGSLDELAKMPASTIQVLGAEKALFRALRSGGRPPKHGIIFQYPAIHTSPRWQRGKIARALAAKLAIAARVDAFSGRFIGDQLNEQLKKRIDEIKEKFAQHHHHHHHH” here?
Answer: The value was “soluble”.

Question: For “MVKKMCQDYLSSSGLCSQETLEINNDKVAESLGITEFLRKKEIHPDNLGPKHLSRDMDGEQLEGASSEKREREAAEEGLASVKRPRREALSNDTTESLAANSRGREKPRPLHALAAGTIVSQEEDIVTVTDAEGRACGWAR”, which “soluble on expression in E. coli” value is on record?
Answer: The value was “soluble”.

Question: Which “soluble on expression in E. coli” value does the source give for “MVKMLTMDKILSKKIKVNWLGGVFWLLPNLLDLFSASKRKASVRPYQSLLELVQENFLNRYDLVHFSFNGDHDFFHFNDLQAIRSFNFTIEEEQLGAMQPDEVLLFEPVDRVTVELDQKGLSLIHSGKAFCASANYFKHWLKRVPQQDKVTLVWRKSGFELKQ” here?
Answer: Its value is “soluble”.

Question: With “MVKPDWWIREMARKGMIEPFEERLVREGVISYGLSSFGYDLRAAPEWKIFTNVFSSLVDPKNFDPKSFVEYEGEEVVIPPNSFALTRSLEYIRMPDNVIAIALGKSTYARCGIVVNVTPLEPGWEGHVTLEISNTTPLPAKVYAGEGIVQLLFLEGPRPEVTYRDRKGKYQGQKGITLPRV” as the sequence, how does the “soluble on expression in E. coli” value read?
Answer: The value was “soluble”.

Question: With “MVKQLNSVEAFREFIHQYPLAVVHVMRDQCSVCHAVLPQIEDLMQSYPNVPLAVINQSQVEAIAGELNIFTVPVDLIFMNGKEMHRQGRFIDMQRFEHHLKQMNDSVNNDVDEHEYRK” as the sequence, how does the “soluble on expression in E. coli” value read?
Answer: The value was “soluble”.

Question: With “MVKRANTFAMRPLTADDEQVLRDLLDASAALWNEINYQRLMRYNDKDGFEDEDVWDADTGALEGKYKAVLGASTAQTVRRANTEAWRSFFRLKKQFHDESNTSVTEHPEPPGFRGNKDDGRVLKGVVRKDAYSVEWGDRSRLEMVVGEQLRDRHNSPKSRLRLEIVGDPNWSDYEDQGRLELWYDETDCTFRASQPVTVSDDARATPLANEKAALDIGANNLVACTTTTGQQYLYEGRELFQRFRETTREIARLQSKLPEGRYSSKRIRRLYRKRTRRRDHAQETLCRDLLEQLYGEGVDTVYIGGLTDVLETHWSAETNAKTHNFWAFKQFTERLAWTADEYGISVEVRSEAWTSQECPQCGSTDRTTRQQDTLTCPCGFEGHADVTASETFLERHTEKAVRPMARPVRFEWDDHEWSESPRSPARESPKEQRTDPSTVPRDGNVVSGDSLEHHHHHH” as the sequence, how does the “soluble on expression in E. coli” value read?
Answer: The value was “not soluble”.

Question: Which “soluble on expression in E. coli” value does the source give for “MVKSFRMKALIAGAAVAAAVSAGAVSDVPAAKVLQPTAAYAAETVFSQNNGASGFLPGRYDVQAMAPAMFNWSRESRFAGNTDGTLKWQNDIRTTPQNGAGAVIDGDGTVYLHSRDGEMKAFNPDGSVKWVTGNLGKTYTQSPVLGTNGVIYLASYDKKIYFIDKETGEILTTVPLSGGPSSETVIGSDGTLYFSTLDNYVHAIKPTSKSTWTERWKLKTNGVVSSVPVLAKNGTVYVGTYNYVFYAINSGTGQVKWSRTTSNAFKGYPVIDKDGNIYAGNQDGQLYAYTSTGSLKWTFPLNGFSSSSPAIDHNGNIYIGSGSGELFSISKNGDMNWSFYTDGPVRTAPLIDAKGTVYFGSDDMKVYAADANGNELWSYQTDSNVVSSPQLAEDGTLYIGSYTKLMAFGKLEHHHHHH” here?
Answer: Its value is “soluble”.

Question: For “MVLLVSQLYGCGDPLPEQRKLSHFDRIKAAGELRVLVRDKRFASSRPASGTAGFERDLLHGFASHLGVRLRFIPANARPVTERLLRGEADFAAMPSRSVAGEVLPTGGPPPFAGVTPVGGWVGALAGGLKGMARNSAQKFNPRMAFAEYSPRRVHTLKWAFPENAGVRGPRALAWMFAEPEGDHLAMMAEHFLRDMCERKGLDPLLDRHFGHNEGADPALDRNLRESYGRQLGKYRRTFVEAAARHGLDWRLLAAVAFQESRWDGHAVSAEGVRGMMMLTGATARELGVDRNNPGQSIHGGARYLKAVWSRLPEEIAEPDRTWFALSAYNLGPGRVETARRLAKKLGRDPNKWAEVKKTLPLVGAGRSGGRFRHPSARGKLTVQYVNRVRHYYDLLVRLEHHHHHH”, which “soluble on expression in E. coli” value is on record?
Answer: The value was “soluble”.

Question: With “MVLPERDSPCGWTRMIPLPSDGSVSIAGRSPRLNVEAVEAVVTLPTFKRPEQVLDTLASLRAQRTGRRFAVIVMENEAEVREGAKAVLPLFERGEMPGMVIVAQERGNCSAYNAGWQTAMLHFPNFRHLLVIDDDEIADPHWLERMCMAAETLGADIVGGPQVPVFADAAHARWAEHPVFAPPYRETGRVPALYSSGNLLVGRNVLVAMEPPFLDLKFNFMGGGDSDFLSRAVQNGFVLGWCAEAKVRETVPARRVEPDWIRARSLRNGVISTLVEKKKRAGTPLAGAEVLAKSLALLAAAPFRGLIRLARTGSPAIAIYPVHVALGRVLAEFGYANEQYRQPEKN” as the sequence, how does the “soluble on expression in E. coli” value read?
Answer: Its value is “not soluble”.

Question: With “MVNTLAFEYSYKALIVYCRINNNNFSLVKLKSNLNFSVPKIFNDFVIKNNIDLNQIELIINSCGPGSFTGLRISLSFVKGLALGLSIPFVNISTLDVFANLVENNPSAVVLTFTAGKYFLGNYKNCKLIGKILCFSKKDLFEYLNQIDPNSVLIGNNLEDVCKECNYKFKIIENLSSFGKILTELGVAKYLKNRKGDDILSGPLYIRQSDAEVNFHSLEHHHHHH” as the sequence, how does the “soluble on expression in E. coli” value read?
Answer: Its value is “not soluble”.

Question: Which “soluble on expression in E. coli” value does the source give for “MVPCWNHGNITRSKAEELLSRTGKDGSFLVRASESISRAYALCVLYRNCVYTYRILPNEDDKFTVQASEGVSMRFFTKLDQLIEFYKKENMGLVTHLQYPVPLEEEDTGDDPEEDTVESVVSPPELPPRNIPLTASSCEAKEVPFSNENPRATETSRPSLSETLFQRLQSMDTSGLPEEHLKAIQDYLSTQLAQDSEFVKTGSSSLPHLKKLTTLLCKELYGEVIRTLPSLESLQRLFDQQLSPGLRPRPQVKG” here?
Answer: Its value is “soluble”.

Question: Which “soluble on expression in E. coli” value does the source give for “MVQAFEPYIALNSHVRKPVIHISLNPSPKDILSKEQMTVLAQEFMEKFGYGNQPYIVWLHEDIDRKHMHIISVRINEKGEKIDHNREAIRAQNICRDMEVKYGLHSTLGEHSERELLSLQKVDYPKGDVKAQVKHTARTLLECYNCHSLAEYNTLLNLYNVTVYEVRGSVDGKEYYGIMYGALDDDGQQAGTPFKSSKFGKVFGYEALQKKFAATAEKVLEHHHHHH” here?
Answer: Its value is “not soluble”.

Question: Which “soluble on expression in E. coli” value does the source give for “MVQLDRFEILFNNPEQAYFAGQEISGKVIIENKEPKKVNEILLELKGRARTYWTKHSGKSRKHCSHSEPYFLEQFNPGYTHKFTVVKDGKEKERILPAGIHQVPFSYTLPKSLPSSFEGEFGHIRYTCKAICERPWDFDIVSRKAFTVVGIEDINSDPKLNEPATCVESNHAVTFCCRSAGSVTGEIRISKCGYTPGEKIDVSFKVINLSSKTRTTALRFVQQTTYKAKTFAGHEHIKNVVRVISKIDKGEVPGGSTTEWQEESITIPSLPPKLGKCKILSVTYSVELEVEQTLTVPCPIVIGSIPQLSQLLIHSKQSVQSAGNGSLPKSSIKDSPPKWDSESCVQVTITDESGQLVEELGNEMEALLSARKRVRMPSSILSELYPTMPSPYYKESFFGASDISEEKEQAQFGEASFAPKYPFYTD” here?
Answer: Its value is “not soluble”.

Question: For “MVRIALEGELFKGVTSLLDQADRTAGAEIFSALYELNDPRGLEVRLQAHDHGDPKIRNVVLGNERGKKNGVEVDDADSDNRHNLHAAGVNVTDRILPDGSIPHNKFMVLEENGKPTKVLTGSTNWTSTGLATQTNNTLIIKSPLVAARYKEYWTSVKHFSELGADAPKKLQDPLEHHHHHH”, which “soluble on expression in E. coli” value is on record?
Answer: Its value is “not soluble”.

Question: With “MVRIIVDHSLILLYSLSAFEESKYISSEEQMQISEYINVDDKIIQRWFEIRRAPTQESWEPEVILPEAIAIFEKEFTTNPNPCSHTLEELRMKTHVQVDSINKWFDERRCAAEQNIKSDSEGSEASFSLCSSWGDTDKELKVDLKMA” as the sequence, how does the “soluble on expression in E. coli” value read?
Answer: The value was “not soluble”.

Question: For “MVRIRWFFIRHAESEANVVERWRIAGRSEAARLTERGERQARVVGEAVAIRLEQVLRVDGGDAGGVSGDAGRRRVLAPVAFTSPLLRARQTAALVLEQVAQPVKLEPVDDLAEVYQGLWEDALRSEVHTPETLQAMARNPYEFRAPGGEAQADVERRVLRAVSRMSQRVLSLLSLELEENEQTDVIVLVFTHGYVCKCLIRSVLDASPHLTGQIQVDNGALVELWLEPAAQQGALTSAAELGMWTVLRINDTWGQLTASMR”, which “soluble on expression in E. coli” value is on record?
Answer: Its value is “not soluble”.

Question: Which “soluble on expression in E. coli” value does the source give for “MVRYYHIEMLACPECRNPRLILYVVREKRGAMPPQPERLKCRRWCYLFDRPASTVPLSTCVSSCVERDIEEGVLVCPACGRWYPIVEGIPVMMDDKYRDPERDREIASRLAGHVPEWVKLRAVAPVPLEPREAGEG” here?
Answer: The value was “soluble”.

Question: Which “soluble on expression in E. coli” value does the source give for “MVSCENLWQQALAILATQLTKPAFDTWIKASVLISLGDGVATIQVENGFVLNHLQKSYGPLLMEVLTDLTGQEITVKLITDGLEPHSLIGQESSLPMETTPKNATALNGKYTFSRFVVGPTNRMAHAASLAVAESPGREFNPLFLCGGVGLGKTHLMQAIAHYRLEMYPNAKVYYVSTERFTNDLITAIRQDNMEDFRSYYRSADFLLIDDIQFIKGKEYTQEEFFHTFNSLHEAGKQVVVASDRAPQRIPGLQDRLISRFSMGLIADIQVPDLETRMAILQKKAEYDRIRLPKEVIEYIASHYTSNIRELEGALIRAIAYTSLSNVAMTVENIAPVLNPPVEKVAAAPETIITIVAQHYQLKVEELLSNSRRREVSLARQVGMYLMRQHTDLSLPRIGEAFGGKDHTTVMYSCDKITQLQQKDWETSQTLTSLSHRINIAGQAPESLEHHHHHH” here?
Answer: The value was “not soluble”.

Question: With “MVSTTQSRSLKAMGEEIWKNKTEKINTELFTLTYGSIVAQLCQDYERDFNKVNDHLYSMGYNIGCRLIEDFLARTALPRCENLVKTSEVLSKCAFKIFLNITPNITNWSHNKDTFSLILDENPLADFVELPMDAMKSLWYSNILCGVLKGSLEMVQLDCDVWFVSDILRGDSQTEIKVKLNRILKDEIPIGED” as the sequence, how does the “soluble on expression in E. coli” value read?
Answer: Its value is “soluble”.

Question: With “MVSVSSEPVMPTALKILIAGGFGVGKTTMVGSVSEVPPLETEERMTAVSLGVDDLSGVEGKKSTTVAMDFGRITIAPELVLYLFGTPGQDRFWFMWDDLATGALAAIVLADTRRLDASFASIDFFEARDIPFAVGVNCFDGRRDCSAEQVRTALDLDPSTPVLLCDVRDRGSSKSVLLAVLEAARAQAAARLAPLGGGQLEHHHHHH” as the sequence, how does the “soluble on expression in E. coli” value read?
Answer: The value was “not soluble”.

Question: With “MVSVSVVIATLKPRDEIEAIQCLEDQTFDDFEVIVCDKSPVTRARNEGIRQSSSDKIVFLDDDSRPQPGYLEKANDVLETEAAYAGRTIHPVDDVFARHFTAHYDWGGDPCYVDHFWGCNMGVHRDVFKTVGGWDEEMGWGHEEKELARRVRSEFDIRYDPELVVDHPYASSITDYWKKQYKLETKSPYYWSKCNVSRADQLKNIFCETFDPLNYVRITPVATMIEAGSTVAKTAGRLRGFLDHTHHEEGRGGVPDIDRPSQSPERSGLEHHHHHH” as the sequence, how does the “soluble on expression in E. coli” value read?
Answer: The value was “not soluble”.

Question: For “MVTIVWKESKGTAKSRYKARRAELIAERRSNEALARKIALKLSGCVRADKAASLGSLRCKKADECSGSICLPNVAIYAAGYRKSKQLTAR”, which “soluble on expression in E. coli” value is on record?
Answer: Its value is “not soluble”.
